Measured values published in patent US20220324954A1.

How the values were obtained:
human VEGFA (human) [1] = molecular target: human VEGFA (human) (UniProt P15692); experiment: cell-based or functional assay
human VEGFA (human) [2] = molecular target: human VEGFA (human) (UniProt P15692); experiment: blocking ELISA: VEGFR2 coated, biotinylated VEGFA with antibody dilutions (FIG. 6)

Chain of human VEGFA (human) (P15692 other isoform, or with tags, fused parts or gaps limits assumed): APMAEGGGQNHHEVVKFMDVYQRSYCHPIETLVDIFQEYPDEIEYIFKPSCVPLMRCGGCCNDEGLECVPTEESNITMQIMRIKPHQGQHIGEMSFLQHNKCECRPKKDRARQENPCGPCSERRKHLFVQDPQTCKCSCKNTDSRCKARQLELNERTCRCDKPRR
Chain of Conbercept (Fc fusion) (chain): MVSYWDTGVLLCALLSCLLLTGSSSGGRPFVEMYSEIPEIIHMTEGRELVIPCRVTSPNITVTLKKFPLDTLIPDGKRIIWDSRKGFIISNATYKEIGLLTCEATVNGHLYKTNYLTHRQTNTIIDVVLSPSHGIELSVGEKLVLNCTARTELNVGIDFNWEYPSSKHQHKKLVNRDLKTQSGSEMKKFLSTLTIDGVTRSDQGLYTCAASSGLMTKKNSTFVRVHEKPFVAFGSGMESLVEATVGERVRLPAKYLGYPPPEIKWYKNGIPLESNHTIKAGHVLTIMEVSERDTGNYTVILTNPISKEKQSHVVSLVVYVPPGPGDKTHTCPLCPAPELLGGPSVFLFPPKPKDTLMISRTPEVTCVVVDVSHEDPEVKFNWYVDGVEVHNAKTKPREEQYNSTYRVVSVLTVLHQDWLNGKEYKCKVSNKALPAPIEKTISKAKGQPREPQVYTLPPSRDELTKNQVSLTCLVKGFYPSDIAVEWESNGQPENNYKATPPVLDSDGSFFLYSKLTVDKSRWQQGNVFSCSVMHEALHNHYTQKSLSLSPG
Chain of Eylea (Aflibercept) (Fc fusion) (chain): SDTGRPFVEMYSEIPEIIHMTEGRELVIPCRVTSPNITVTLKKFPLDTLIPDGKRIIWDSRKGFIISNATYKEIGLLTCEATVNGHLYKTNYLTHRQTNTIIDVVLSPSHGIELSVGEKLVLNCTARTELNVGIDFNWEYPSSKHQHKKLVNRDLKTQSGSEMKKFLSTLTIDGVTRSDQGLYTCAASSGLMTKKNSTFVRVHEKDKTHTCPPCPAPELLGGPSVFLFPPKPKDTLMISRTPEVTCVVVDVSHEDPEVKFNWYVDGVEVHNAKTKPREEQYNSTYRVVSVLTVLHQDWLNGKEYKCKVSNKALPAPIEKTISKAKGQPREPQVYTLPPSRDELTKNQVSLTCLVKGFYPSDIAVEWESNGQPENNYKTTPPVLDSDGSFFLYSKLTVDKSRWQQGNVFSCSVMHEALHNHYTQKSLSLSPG

Substance: Eylea (Aflibercept) (Fc fusion)
- inhibitory effect on HUVEC cell proliferation, IC50 (human VEGFA (human) [1]): 0.066 mg/L
- IC50 (human VEGFA (human) [2]): 0.085 mg/L

Substance: Conbercept (Fc fusion)
- inhibitory effect on HUVEC cell proliferation, IC50 (human VEGFA (human) [1]): 0.13 mg/L
- IC50 (human VEGFA (human) [2]): 0.088 mg/L
